B1: Yali0B19976: putative Y. lipolytica FDH gene; promoter region SEQ ID NO: 9 (1 Kb) and 25 (1.5 Kb) (nucleic acid, listed as Yarrowia lipolytica)
DNA: ATGAAGGTCCTTCTTGTTCTCTACGACGCCGGCTCCCACGCCAAGGATGAGCCCAAGCTACTTGGATGCACTGAAAACGAGCTCGGTATCCGAGACTGGCTCGAGTCCCAGGGCCATACCCTGGTAACTACCTCTTCTAAGGATGGCGCCGACTCCGTTCTCGACAAGGAGATTGTTGATGCCGATGTTGTCATCACTACCCCCTTCCATCCCGGTTACATCAACAAGGAGAGAATTGACAAGGCCAAGAAGCTCAAGATCTGTATCACTGCCGGTGTTGGTTCTGACCATGTCGATCTAGATGCCGCCAACGCCCGAGACATTGCTGTCCTTGAAGTCACTGGCTCCAACGTTCAGTCGGTCGCTGAGCATGTTGTCATGACCATGCTTGTTCTGGTCAGAAACTTCGTCCCTGCTCATGAGCAGATCATTTCTGGTGGCTGGGACGTTGCCGCTGTCGCCAAGGACTCTTACGACCTAGAGGGTAAGGTCATTGGTACAGTTGGAGGTGGGCGAATCGGTCAGCGAGTCCTCAAGCGATGCAAGCCCTTCGACCCCATGGAGATGCTCTACTACGACTACCAGCCCATGCCCGCTGATGTCGAGAAGGAGATTGGCTGTCGACGAGTGGAGTCTCTCGAGGAGATGCTCTCTCTCTGTGACGTTGTCACCATCAACTGTCCTCTGCACGCCTCCACCAAGGGCCTCTTCAACAAGAAGCTCATCTCCCACATGAAGGATGGCGCCTGGCTCGTCAACACCGCTCGAGGAGCTATTTGTGTCACTGAGGACATTGTTGAGGCTCTCGAGTCCGGAAAGATTCGAGGCTACGGTGGTGATGTCTGGTTCCCTCAGCCCGCCCCAAAGGACCACCCCTGGAGAACAATGCGAAACAAGTACGGTGGAGGAAACGCCATGACCCCTCATATCTCTGGTACTTCTATTGATGCCCAAGGCCGATACGCTGAGGGCACCAAGAAAATCCTTGAGGTCTTCTTCTCAGGAAAGCAAGACTACCGACCCCAGGATATCATCTGTATCAACGGTCACTACGGTACCAAGGCTTACGGTGACGACAAGGAGCACAAGGAGCACAAGGAGCACGAGGTCAAATAAGCTATCAGCTCTATAGTACTGTACAGTAGGTACAATAGGATCTTGATATTACAGT
modifications: YALI0B19976g
B2: Yali0F28765: putative Y. lipolytica FDH gene; its formate-inducible promoter region is SEQ ID NO: 11 (1 Kb) and 27 (1.5 Kb) (nucleic acid, listed as Yarrowia lipolytica)
DNA: ATGAAGGTCCTTCTCATTCTCTACGACGCCGGCTCCCACGCTGTTGATGAGCCCAAACTACTCGGATGCACCGAGAACGAGCTCGGTATCCGATCATGGCTCGAGTCCCAGGGCCATACTCTGGTAACCACCTCTTCCAAGGATGGCGATGACTCTGTCCTCGACAAGGAAATTGTCGACGCCGATGTCGTCATCACCACTCCCTTCCATCCCGGTTACATTACCCGAGAGCGAATTGCCAAGGCCAAGAACCTCAAAATATGTGTTACTGCAGGTGTTGGTTCCGACCATGTCGACCTTGATGCCGCCAACGAGCGAGACATTGCCGTTCTCGAGGTCACTGGTTCCAACGTCCAATCCGTCGCTGAGCACGTCGTCATGACCATGCTCGTCCTCGTCCGAAACTTTGTCCCCGCTCACGAGCAGGTCATGGCTGGTGGTTGGGATGTTGCTGCTGTCGCCAAGGACTCTTATGACATCGAGGGTAAGGTCATTGGTACCGTTGGTGGTGGCCGAATTGGTCAGCGAGTCCTCAAGCGAGTGGCTCCCTTCAACCCTAAGGAGATGCTCTACTACGACTACCAAGGACTTTCTGCTGAGACCGAGCAGGAGCTCAACTGTCGACGAGTCGAGAAGCTTGAAGATATGCTTGCCCAATGTGACATTGTCACCATTAACTGTCCTCTCCACGAGTCTACCAAGGGCCTCTTCAACAAGGAGATGCTCTCTCACATGAAGAAGGGTGCTTGGCTTGTCAACACCGCTCGAGGAGCTATCTGTGTCAAGGAGGATGTCGCCGAGGCTCTTGCCAACGGCCAGCTTCGAGGCTACGGTGGTGATGTGTGGTTCCCTCAGCCAGCCCCTGCCGACCACCCTTGGAGATCGATGCGAAACAAGTACGGCGCCGGTAACGCTATGACCCCACACATATCTGGTACTTCCATTGACGCCCAGGCCCGATACGCCGAGGGCACCAAGAACATTCTCGAGGTCTTCTTCTCCGGAAAGCAGGACTACCGACCCCAGGATATCATCTGTATCAACGGTCACTACGGTACCAAGGCTTACGGCGACGACAAGGAGCACGCCAAGAAATAGATAATATTCATTAACATACAAATACAGTCTACAGTCCTATATCGATTCGGTCGCTTCGAG
modifications: YALI0F28765g
B3: Yali0C14344: putative Y. lipolytica FDH gene; promoter region SEQ ID NO: 7 (1 Kb) and 23 (1.5 Kb) (nucleic acid, listed as Yarrowia lipolytica)
DNA: ATGAAGGTCCTTCTTGTTCTATACGATGCCGGCTCCCACGCCAAGGATGAGCCAAAGCTACTTGGATGCACCGAGAACGAGCTCGGAATCAGAGACTGGCTCGAGTCACAGGGCCACACTCTTGTCACCACCTCTTCCAAGGACGGTGCCCACTCTGTGCTTGACAAGGAGATTGTCGATGCCGATGTAGTCATCACCACCCCTTTCCACCCCGGCTACATCAACAAGGAGCGAATTGACAAGGCCAAAAAGCTCAAGATCTGCATCACCGCTGGTGTTGGCTCCGACCACGTCGATCTCGACGCAGCCAACGCCCGAGATATCTCTGTTCTTGAGGTTACTGGTTCTAATGTCCAGTCTGTCGCAGAGCACGTCGTTATGACCATGCTGGTGCTGGTCCGAAACTTTGTGCCCGCCCACGAGCAGATCATCGAGGGCGGCTGGAATGTGGCTGCTGTCGCCAAGGACTCGTACGATCTCGAGGGAAAGGTCATTGGCACCGTTGGAGGCGGTCGAATCGGCCAGCGAGTGCTCAAGCGATGCAAGCCCTTTGACCCCATGGAGATGCTCTACTACGACTACCAGGCTATGCCAGCTGATGTGGAGAAGGAGATTGGATGCCGACGAGTCGAGTCTCTGGAGGAGAAGCTCTCTCTCTGTGACGTTGTCACCATCAACTGTCCCCTTCACGCCTCCACCAAGGGTCTCTTCAACAAGGAGCTCATTTCCCACATGAAGGACGGCGCTTGGCTCGTCAACACTGCTCGAGGAGCCATCTGCGTCACCGAGGACATTGTCGACGCTCTCGAGTTGGGCAAGATCCGAGGATATGGCGGTGACGTCTGGTTCCCCCAGCCTGCCTCCAAGGACCACCCCTGGAGAACCATGCGAAATAAGTACGGCGGTGGAAACGCCATGACTCCCCACATCTCCGGCACTTCCATCGACGCCCAGGGCCGATACGCTGAGGGTACCAAGAAGATCCTCGAGGTCTTTTTCTCGGGAAAGCAGAATTACAGACCCCAGGATATCATCTGTATCAACGGCCATTATGGTACAAAGGCCTACGGTGACGACAAGGAGCACAAGGGGCACCAGCAGAAGTGA
modifications: YALI0C14344g
B4: Yali0E14256: Y. lipolytica FDH gene; promoter region SEQ ID NO: 8 (1 Kb) and 24 (1.5 Kb) (nucleic acid, listed as Yarrowia lipolytica)
DNA: ATGAAGATCCTTCTTGTTCTCTACGACGCCGGTTCCCACGCCAAGGATGAGCCTCGACTTCTCGGATGTACCGAGAACGAGCTTGGTCTCCGTGACTGGATCGAGTCCCAGGGACACACCTTGGTGACCACCTCCGACAAGGACGGTGAGAACTCAACCGTCGACAAGGAGATTGTGGATGCTGAGATTGTTATCACCACCCCCTTCCACCCCGCTTACATCACCAAGGAGCGAATTGACAAGGCCAAGAAGCTCAAGATCTGTATCACTGCCGGTGTTGGTTCCGACCATGTCGACCTTGATGCCGCCAACGCCCGAGACATTGCCGTCCTCGAGGTTACCGGATCTAACGTCCAGTCCGTCGCTGAGCACGTTGTCATGACCATGCTGGTTCTGGTCCGAAACTTCGTCCCCGCCCACGAGCAGATCATCGAGGGTGGCTGGAATGTCGCTGCTGTCGCCAAGGACTCTTACGACATTGAGGGTAAGGTCATTGGTACTGTCGGCGGTGGCCGAATTGGTCAGCGAGTCCTGAAGCGACTTGCACCCTTCAACCCCATGGAGCTCCTCTACTACGACTACCAGCCCATGCCCAAGGACGTGGAGAAGGAGATTGGCTGCCGACACGTCCCTGATCTTAAGGAGATGCTCTCTGTCTGTGACATTGTTACCATCAACTGTCCTCTCCACGACTCTACCAAGGGTATGTTCAACAAGGAACTCATCTCCCACATGAAGGATGGTGCTTGGCTCGTCAACACCGCCCGAGGTGCCATCTGTGTCACTGACGACATTGTTGAGGCCCTCAAGTCCGGTAAGATCCGAGGCTACGGTGGTGATGTCTGGAACCCCCAGCCTGCCCCCAAGGACCACCCCTGGAGATACATGCGAAACAAGTGGGGCGGTGGAAACGCCATGACCCCCCATATCTCCGGTACCTCCATCGATGCCCAGGGCCGATACTCCGAGGGTACCAAGAACATTCTCGAGGTCTACTTCTCCGGAAAGCAGAACTACCGACCTCAGGATGTCATCTGTATCAACGGCCACTACGGCACTAAGGCTTACGGTGACGACAAGGAGCACAAGGCCCACGTTTCCAAATAAGCACTTTAGCTGTTTAACTTATAAGCAATTGACTACTAGAATTTGC
modifications: YALI0E14256g

For this data set, the system named is Y. lipolytica JMY2900. In words: qPCR of putative FDH gene transcription upon induction with sodium formate. It counts as cell-based, Yarrowia lipolytica. As to conditions: YNB with 0.5% sodium formate, 6 h, 28° C., vs absence of formate; qPCR normalised to actin. Here is the method: FIG. 3: Transcription levels of the FDH genes of Yarrowia lipolytica W29 measured by qPCR, normalised to actin (ACT1) expression. Yarrowia lipolytica was grown in YNB supplemented with 1% glucose and 0.5% yeast extract at 15 h at 28° C., before being washed and transferred into YNB with 0.5% of sodium formate for induction and grown for 6 h.
The inducibility of the putative FDH genes with formate was then tested by qPCR. YALI0E14256g1_1 and the nine putative FDH with the highest % identity to YALI0E14256g1_1 were selected for testing. Y. lipolytica JMY2900 was cultured in YNB media supplemented with 1% glucose and 0.5% yeast extract for 15 h at 28° C. Cells were washed with distilled water and cultured in fresh liquid YNB media supplemented with 0.5% sodium formate at 28° C. with agitation at 160 rpm, before being harvested at 6 h post-inoculated. Cells were frozen in liquid nitrogen and stored at −80° C. RNA was subsequently extracted using the RNeasy Mini Kit (Qiagen), and 2 μg was treated with DNAse (Ambion; Life Science Technologies, Saint-Aubain, France). cDNA was synthesised using the Maxima First Strand cDNA synthesis kit (Thermo Fischer Scientific, Villebon sur Yvette, France). qPCR was then performed using the SYBRgreen mastermix (Thermo Fischer Scientific) with gene-specific primers designed using Primer3 software. Relative expression levels were calculated using ΔCT and ΔΔCT methods. Expression levels were normalised to actin.
(In general: Real-time PCR tracks product formation cycle by cycle.)
Consider B1, for which the “Fold increase on induction (fold change expression of putative FDH genes upon induction with sodium formate)” value was 11.4 fold. As for B2, the figure is 8.1 fold; as for B3, 4.9 fold. As for B4, the figure is 23.9 fold.

The record behind these values is patent US20230332166A1, “FORMATE-INDUCIBLE PROMOTERS AND METHODS OF USE THEREOF” (Imperial College Innovations Ltd, priority 2020, published 2023).
